Source: publication PMC8720280 (2021)
Blank lines part the entries; values can stand above or below the binder they belong to.

Columns and labels:
[1] = molecular target: T1, WT DR5 recombinant protein (IgG4-Fc tagged extracellular domain of human DR5) (human, UniProt O14763-1 56-210, biotinylated with EZ-Link Sulfo-NHS-SS-Biotin for BLI); test: BLI
RKCSR DR5 = test: BLI
Chimp DR5 = test: BLI
RKCAR DR5 = test: BLI
Monkey DR5 = test: BLI
[2] = molecular target: T1, WT DR5 recombinant protein (IgG4-Fc …); test: ELISA
[3] = molecular target: T1, WT DR5 recombinant protein (IgG4-Fc …); test: ELISA; remark: listed apart in the source
[4] = molecular target: T1, WT DR5 recombinant protein (IgG4-Fc …); test: BLI; remark: listed apart in the source

Kd [1]: 519 pM
Kd (RKCSR DR5): 215 pM
Kd (Chimp DR5): < 1 pM
Kd (RKCAR DR5): 266 pM
Kd (Monkey DR5): 14 pM
Kd [2]: 32 pM
Kd [3]: 81 pM
Kd [4]: 37.6 pM
B1: Lexatumumab (antibody, V domains shown)
VH: EVQLVQSGGGVERPGGSLRLSCAASGFTFDDYGMSWVRQAPGKGLEWVSGINWNGGSTGYADSVKGRVTISRDNAKNSLYLQMNSLRAEDTAVYYCAKILGAGRGWYFDLWGKGTTVTVSS
VL: SSELTQDPAVSVALGQTVRITCQGDSLRSYYASWYQQKPGQAPVLVIYGKNNRPSGIPDRFSGSSSGNTASLTITGAQAEDEADYYCNSRDSSGNHVVFGGGTKLTVL

Kd [1]: < 1 pM
Kd [3]: 88 pM
B2: KMTR2 (antibody, V domains shown)
VH: QVQLVQSGAEMKKPGASVKVSCKTSGYTFTNYKINWVRQAPGQGLEWMGWMNPDTDSTGYPQKFQGRVTMTRNTSISTAYMELSSLRSEDTAVYYCARSYGSGSYYRDYYYGMDVWGQGTTVTVSS
VL: EIVLTQSPATLSLSPGERATLSCRASQSVSSYLAWYQQKPGQAPRLLIYDASNRATGIPARFSGSGSGTDFTLTISSLEPEDFAVYYCQQRSNWPLTFGGGTKVEIK
